The values below come from the domain aggregation screens of Martell et al. (2025).
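Note: 20 min heating vs room temperature control held 20 min.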

A short description of the data set: soluble fraction after stress (log2 fold change); higher = more stays soluble; pooled small domains, quantitative proteomics. To be noted: stress: 75 degC.
“HMRSTIYEFTVPPGQLESIRLDVYITSFVENATRSKVQEAIKQGYVWVNGKHEKASYTMLPGDKIYIELPI”: the “soluble fraction (log2)” value is -2.65.

“HMRSVEVAAEPGMVLEDRQTGFVGAVVAVEKSGGTHLVVLEDRHGLRRGFPLGPGFWLEGRPVVLAPPP”: the “soluble fraction (log2)” value is -1.01.

Consider “HMRTANREKRIEASVKMMKAGYPVGYIIARVFMYEGWEEDYRQLLIYLSEKIPKDVSNPITFEVIS”, for which the “soluble fraction (log2)” value is -0.622.

For “HMRTEGNLGAKVRVLRRSQGMTQAELARRLGISPSYLNLIEHNRRSFTADLLVKLAKILPVNLKT”, the “soluble fraction (log2)” value was -2.5.

For “HMRTITYSITPAHAGMSVERYLKQQHGYSTRTLVKLKHYPQGLQLNGQHARTVDLLQAGDTLAVTFLD”, the “soluble fraction (log2)” value was -2.42.

For “HMRTLSAGVAGRLRADILNGLLEPGRRLGMAELTERYGAGMSPVREALSRLVGEGLVQSEGQRGFRVA”, the “soluble fraction (log2)” value was -0.446.

With “HMRTMFGQRLRLARKRAGLSMQALADRVTPSVSAQAISKYEADQMMPSSSVLVGLGKALGVSLDFLVGGQ”, the “soluble fraction (log2)” value is -1.41.

For the sequence “HMRTNVDISPKILEWVLSQVRNRTTNDVIETIQIWIKGEKPPTFNQVEKISKATGVPLGYFFLKTPPVED”, the “soluble fraction (log2)” value is -1.34.

On to “HMRTPLTGREEQVATLIGRGMTNSEIAESLSVDESTVKTHIGSILRKVHLRDRLQVALWFHGLPIE”, for which the “soluble fraction (log2)” value is -0.67.

For “HMRTTYKTRLETLLAGPMSAGDRRFASSLLDFYNRKNRLTPGRARFVAQLEDRYSAEALAARQG”, the “soluble fraction (log2)” value is -1.19.

Regarding “HMRTVEQFQIRKIYAISNALGISDSRADEDELHVLVSGLTGKDSIKELTYREASVVIERLEELQ”, the “soluble fraction (log2)” value is -2.22.

As to “HMRVDDITDTILNVLKEQGGFISVTDKSSPETINKLFGVSKKTYKKAIGAIYRKKLIIIEDDGIRLNS”, the “soluble fraction (log2)” value was -2.4.

With “HMRVDRSALDSIPGVGPGRKRTLLHHFGSARAVEASGLADLESIRGISKALARKIYDFFHPE”, the “soluble fraction (log2)” value was -1.55.

Take “HMRVELVVVPELRQQLLPEARELANSAGLQLRVRGQSPADETRTIVVTQSPAAGTRVAARSIVLVE”: the “soluble fraction (log2)” value was -1.12.

Turning to “HMRVPTVIGMDEGTAKATLANASLKSNIVYESDETKENGKVLSQGIEQNKEVKAGTTVEIKVNKIE”, the “soluble fraction (log2)” value stood at 0.116.

For “HMRVTEVSYDKFLDMLSGGQVTVVELQENERELYFKAADENGAERIYSTGVFPDADLQKRLSESGVTF”, the “soluble fraction (log2)” value was -0.14.

On to “HMRYLHTMIRVSDLEESLNFFKLLDIHEVSRKENEQARFTLVFLSATGDEKLVENAKSPLIELTFN”, for which the “soluble fraction (log2)” value was -0.0509.

On to “HMRYLMPDLVNRRYEPVRSLLEARGIRFGNVIFEPYEGLPPGIVLRQDPPAGHPLPRRRTVSLVVSGPGGR”, for which the “soluble fraction (log2)” value was -2.56.

Turning to “HMRYQIAEARKLRDITQAELAEKMGTTQQTIQRYETNQVNIRMDKMIEMSEILNVSLAYLLGMSSSPEL”, the “soluble fraction (log2)” value was -1.78.

Consider “HMRYVVQVATFSSKNNAIRAADDLAGFVVVSNGYYRVRTGPYADRGEANAALAKARKAGYTDAFVDTS”, for which the “soluble fraction (log2)” value was -2.19.

For the sequence “HMSAAYVYVTGTRVNQRDGPSTFDRVMGVLVEGTRVQLLRDQGQWAQIRSDLGTGWLSSGFLSRNG”, the “soluble fraction (log2)” value is -1.88.

For “HMSADKAEAAEASLKSFNLRLQAAAMEAGKTFAPVTADQYAEYKAAWGTYIRKGIEGLSESEKKTINVG”, the “soluble fraction (log2)” value is -0.243.

For “HMSAETREELVGREGVSLTDLRPSGFALFGQEKIDVVSESEFIEEGTSVRIVSVEGSRHIVRAKR”, the “soluble fraction (log2)” value is -0.0724.

In the case of “HMSAISSARKEKIIEYLTDHGSARSSEIAEYVDLRPSRVRDYLGELVREDIVVAEGANRNRTYRLK”, the “soluble fraction (log2)” value was -0.0533.

Regarding “HMSAPGYRAVYPGMLESERQTAYELLSSSGFDVKINTSSGELEVTTDRYHEARMVMASQNIPK”, the “soluble fraction (log2)” value is -0.137.

In the case of “HMSAPVFRITPAGVVVNGLKRSDILTLTRIDGAMNTLPHNAGEVLVSTEGLAKGVYVITAGGKSLKFLV”, the “soluble fraction (log2)” value is -1.85.

Regarding “HMSAQPMEYSRFYSDVTQGRVAEVEIEGREINGRLSTGERFKTFSPETDNKALIGHLLDNGVVIEGKPP”, the “soluble fraction (log2)” value was 0.255.

On to “HMSASEKLFEARKNLNIVNVLGKNPVDRYDIVKILKHGDHYHIYDSKGNEGITYTNPKSLYPEAEFGEYQG”, for which the “soluble fraction (log2)” value is -0.0642.

As for “HMSASTGTVSYKSGATTVWNSPSWHQVKRYVTFGDTVQLLGKTVDQNGATWYKVGDNQWIPELYLNVAG”, the “soluble fraction (log2)” value is -0.725.

On to “HMSATEPVHFDPNKSPEDMTVEELQAGILAKMANNGPVSDQMKKTVNENIWHDSLVNWLKSF”, for which the “soluble fraction (log2)” value was -0.164.

Take “HMSATPQRMSIINELDSARKNLSAYDLRDSLKDKGHSFNISTIYRVLSFWIDVGVVHKMDSSNTYL”: the “soluble fraction (log2)” value was -0.111.

In the case of “HMSATVLVHVLGEVRKPGVVSLPEGSRVQDAITAAGGLTSRAKPGDLNLAARVSDGAQLVIGRSGSQVRTT”, the “soluble fraction (log2)” value is -0.306.

For the sequence “HMSAVVAPLPGLIQNILVKVGDTVHAGQHVLTMEAMKMENEIQTNRDGIIKDIKVRIGDSVNEGDTLIIL”, the “soluble fraction (log2)” value is 0.0725.

For “HMSDAGAIEPTIKEILASNPKAVEEYLAGNIKNINALIGQSMKALHGKADPQTVRNLLAKLLDEM”, the “soluble fraction (log2)” value is -0.252.

On to “HMSDAIQLEQKIGLEAIEWYLALSEQTDDKLLYQQWQSWLAADPQHQLAWSRIEQVNHGLNTL”, for which the “soluble fraction (log2)” value is -1.03.
